# Like-named read-outs stand apart in the source and are kept apart here. Positions of bridges follow the written chain, without caps; N, C: chain ends. Non-standard residues stand in square brackets, D forms with d. No end group written: not given here. hArg = N=C(N)NCCCC[C@H](N)C(=O)O; Aib = CC(C)(N)C(=O)O
# T1: PTH/PTHrP receptor (P1R), wild-type, full-length (human, UniProt Q03431 27-593)
# T1 sequence (looked up): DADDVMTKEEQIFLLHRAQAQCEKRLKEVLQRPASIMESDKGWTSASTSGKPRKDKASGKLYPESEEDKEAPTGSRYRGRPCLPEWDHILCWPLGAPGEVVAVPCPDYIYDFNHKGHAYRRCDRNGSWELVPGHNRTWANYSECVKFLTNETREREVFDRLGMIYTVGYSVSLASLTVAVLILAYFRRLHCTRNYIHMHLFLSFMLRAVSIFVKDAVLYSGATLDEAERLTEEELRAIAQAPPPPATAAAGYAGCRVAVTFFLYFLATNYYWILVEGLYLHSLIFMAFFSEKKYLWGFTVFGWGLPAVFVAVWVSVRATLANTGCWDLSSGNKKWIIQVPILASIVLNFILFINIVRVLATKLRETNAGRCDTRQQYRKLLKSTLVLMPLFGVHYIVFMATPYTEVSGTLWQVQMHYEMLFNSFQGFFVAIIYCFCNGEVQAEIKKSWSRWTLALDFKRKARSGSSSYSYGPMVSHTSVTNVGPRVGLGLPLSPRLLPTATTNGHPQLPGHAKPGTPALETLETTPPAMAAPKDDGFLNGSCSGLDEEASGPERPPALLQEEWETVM
# T2: P1R-DelNt (truncated human P1R deleted for residues 24-181) (human, UniProt Q03431 182-593)
# T2 sequence (looked up): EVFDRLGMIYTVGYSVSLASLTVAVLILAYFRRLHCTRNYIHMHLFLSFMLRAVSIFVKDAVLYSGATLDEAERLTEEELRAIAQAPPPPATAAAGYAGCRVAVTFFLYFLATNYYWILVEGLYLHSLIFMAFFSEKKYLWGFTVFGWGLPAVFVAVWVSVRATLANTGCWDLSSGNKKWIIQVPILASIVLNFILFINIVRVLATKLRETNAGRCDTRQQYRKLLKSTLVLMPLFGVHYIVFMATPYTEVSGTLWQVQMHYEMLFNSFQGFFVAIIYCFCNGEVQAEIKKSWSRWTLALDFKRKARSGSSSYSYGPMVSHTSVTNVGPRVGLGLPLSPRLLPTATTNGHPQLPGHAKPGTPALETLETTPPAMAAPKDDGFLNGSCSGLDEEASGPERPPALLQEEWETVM
# Key:
# [1] = target: T1, PTH/PTHrP receptor (P1R), wild-type, …; assay: cell-based or functional assay
# [2] = target: T2, P1R-DelNt (truncated human P1R deleted …); assay: cell-based or functional assay
# [3] = target: T1, PTH/PTHrP receptor (P1R), wild-type, …; assay: cell-based or functional assay; remark: listed apart in the source
# [4] = target: T1, PTH/PTHrP receptor (P1R), wild-type, …; assay: competition with 125I-[Ala3,12,Gln10,Har11,Trp14,Arg19,Tyr21]PTH(1-21)-amide tracer on HKRK-B28 cells expressing P1R
# Protocol: Competition Binding. Binding reactions were performed with […] cells or in COS-7 cells in 24-well plates. The cells were rinsed with 0.5 mL of binding buffer, and then treated successively with 100 μL binding buffer, 100 μL of binding buffer containing various amounts of unlabeled competitor ligand, and 100 μL of binding buffer containing ca. 100,000 cpm of ¹²⁵I-[M]PTH(1-21)(SEQ. ID. NO. 16) or ¹²⁵I-[Aib^{1,3},M]PTH(1-21)(SEQ. ID. NO. 17) (ca. 26 fmol; final volume=300 μL). Incubations were 4 to 6 h at 4° C., at which time near equilibrium conditions were attained. Cells were then placed on ice, the binding medium was removed, and the monolayer was rinsed three times with 0.5 mL of cold binding buffer. The cells were subsequently lysed with 0.5 mL 5N NaOH and counted for radioactivity. For each tracer and in each experiment, the non-specific binding was determined as the radioactivity that bound in the presence of the same unlabeled peptide at a concentration of 1 μM, and was ˜1% of total radioactivity added for each tracer. The maximum specific binding (B₀) was the total radioactivity bound in the absence of competing ligand, corrected for nonspecific binding, and for each tracer, ranged from 8% to 20% of the total radioactivity added. Nonlinear regression was used to calculate binding IC₅₀ values (see below). Scatchard transformations of homologous competition binding data derived from studies with 26 fmol of ¹²⁵I-[Aib^{1,3},M]PTH(1-21) (SEQ. ID. NO. 17) were employed for estimations of apparent equilibrium dissociation constant (kDapps) and total number of ligand binding sites (Bₘₐₓ), assuming a single class of binding sites and equal affinities of the iodinated and non iodinated ligand.
# The peptide PTH(1-34) ([Tyr³⁴]bPTH(1-34)NH₂) (SEQ. ID. NO. 10) and analogs containing substitutions at positions 6 and/or 10 in place of Gln and Asn, respectively, were evaluated in HKRK-B28 cells for the capacity to stimulate cAMP accumulation, and to inhibit the binding of ¹²⁵I-[Ala^{3,12}, Gln¹⁰, Har¹¹, Trp¹⁴,Arg¹⁹, Tyr²¹]PTH(1-21)-amide (SEQ. ID. NO. 30) tracer radioligand.
# [5] = target: T1, PTH/PTHrP receptor (P1R), wild-type, …; assay: cell-based or functional assay; remark: listed apart in the source
# [6] = target: T2, P1R-DelNt (truncated human P1R deleted …); assay: cell-based or functional assay; remark: listed apart in the source
# [7] = target: T1, PTH/PTHrP receptor (P1R), wild-type, …; assay: cell-based or functional assay; remark: listed apart in the source
binder,measurement,setting,value
AVAEIALMHQR-NH2 [[Ala^6]PTH(1-11)],cAMP EC50,[1],330 µM
same,cAMP Emax (%),[1],26%
same,cAMP EC50,[2],320 µM
same,cAMP Emax (%),[2],14%
AVAEIQLMHAR-NH2 [[Ala^10]PTH(1-11)],cAMP EC50,[1],11 µM
same,cAMP Emax (%),[1],88%
same,cAMP EC50,[2],39 µM
same,cAMP Emax (%),[2],79%
"AVAEIALMHAR-NH2 [[Ala^6, Ala^10]PTH(1-11)]",cAMP EC50,[1],160 µM
same,cAMP Emax (%),[1],41%
same,cAMP EC50,[2],170 µM
same,cAMP Emax (%),[2],42%
"[Aib]V[Aib]EIALMHQ[hArg]AKW-NH2 (N-terminus assumed; SMILES CC[C@H](C)[C@H](NC(=O)[C@H](CCC(=O)O)NC(=O)C(C)(C)NC(=O)[C@@H](NC(=O)C(C)(C)N)C(C)C)C(=O)N[C@@H](C)C(=O)N[C@@H](CC(C)C)C(=O)N[C@@H](CCSC)C(=O)N[C@@H](Cc1c[nH]cn1)C(=O)N[C@@H](CCC(N)=O)C(=O)N[C@@H](CCCCNC(=N)N)C(=O)N[C@@H](C)C(=O)N[C@@H](CCCCN)C(=O)N[C@@H](Cc1c[nH]c2ccccc12)C(N)=O) [[Aib^1,3, Ala^6]PTH(1-14)]",cAMP EC50,[2],0.146 µM
same,cAMP Emax (%),[2],101%
"[Aib]V[Aib]EIQLMHA[hArg]AKW-NH2 (N-terminus assumed; SMILES CC[C@H](C)[C@H](NC(=O)[C@H](CCC(=O)O)NC(=O)C(C)(C)NC(=O)[C@@H](NC(=O)C(C)(C)N)C(C)C)C(=O)N[C@@H](CCC(N)=O)C(=O)N[C@@H](CC(C)C)C(=O)N[C@@H](CCSC)C(=O)N[C@@H](Cc1c[nH]cn1)C(=O)N[C@@H](C)C(=O)N[C@@H](CCCCNC(=N)N)C(=O)N[C@@H](C)C(=O)N[C@@H](CCCCN)C(=O)N[C@@H](Cc1c[nH]c2ccccc12)C(N)=O) [[Aib^1,3, Ala^10]PTH(1-14)]",cAMP EC50,[2],0.081 µM
same,cAMP Emax (%),[2],104%
"[Aib]V[Aib]EIALMHA[hArg]AKW-NH2 (N-terminus assumed; SMILES CC[C@H](C)[C@H](NC(=O)[C@H](CCC(=O)O)NC(=O)C(C)(C)NC(=O)[C@@H](NC(=O)C(C)(C)N)C(C)C)C(=O)N[C@@H](C)C(=O)N[C@@H](CC(C)C)C(=O)N[C@@H](CCSC)C(=O)N[C@@H](Cc1c[nH]cn1)C(=O)N[C@@H](C)C(=O)N[C@@H](CCCCNC(=N)N)C(=O)N[C@@H](C)C(=O)N[C@@H](CCCCN)C(=O)N[C@@H](Cc1c[nH]c2ccccc12)C(N)=O) [[Aib^1,3, Ala^6,10]PTH(1-14)]",cAMP EC50,[2],0.024 µM
same,cAMP Emax (%),[2],100%
AVAEIQLMHQ[hArg]AKW-NH2 (N-terminus assumed; SMILES CC[C@H](C)[C@H](NC(=O)[C@H](CCC(=O)O)NC(=O)[C@H](C)NC(=O)[C@@H](NC(=O)[C@H](C)N)C(C)C)C(=O)N[C@@H](CCC(N)=O)C(=O)N[C@@H](CC(C)C)C(=O)N[C@@H](CCSC)C(=O)N[C@@H](Cc1c[nH]cn1)C(=O)N[C@@H](CCC(N)=O)C(=O)N[C@@H](CCCCNC(=N)N)C(=O)N[C@@H](C)C(=O)N[C@@H](CCCCN)C(=O)N[C@@H](Cc1c[nH]c2ccccc12)C(N)=O),cAMP EC50,[3],0.12 µM
same,cAMP Emax (%),[3],100%
"AVAEIELMHK[hArg]AKW-NH2 (N-terminus assumed; SMILES CC[C@H](C)[C@H](NC(=O)[C@H](CCC(=O)O)NC(=O)[C@H](C)NC(=O)[C@@H](NC(=O)[C@H](C)N)C(C)C)C(=O)N[C@@H](CCC(=O)O)C(=O)N[C@@H](CC(C)C)C(=O)N[C@@H](CCSC)C(=O)N[C@@H](Cc1c[nH]cn1)C(=O)N[C@@H](CCCCN)C(=O)N[C@@H](CCCCNC(=N)N)C(=O)N[C@@H](C)C(=O)N[C@@H](CCCCN)C(=O)N[C@@H](Cc1c[nH]c2ccccc12)C(N)=O) [[Glu^6, Lys^10]PTH(1-14) (linear)]",cAMP EC50,[3],40 µM
same,cAMP Emax (%),[3],52%
"AVAEIELMHK[hArg]AKW-NH2 (lactam 6-10; N-terminus assumed; SMILES CC[C@H](C)[C@H](NC(=O)[C@H](CCC(=O)O)NC(=O)[C@H](C)NC(=O)[C@@H](NC(=O)[C@H](C)N)C(C)C)C(=O)N[C@H]1CCC(=O)NCCCC[C@@H](C(=O)N[C@@H](CCCCNC(=N)N)C(=O)N[C@@H](C)C(=O)N[C@@H](CCCCN)C(=O)N[C@@H](Cc2c[nH]c3ccccc23)C(N)=O)NC(=O)[C@H](Cc2c[nH]cn2)NC(=O)[C@H](CCSC)NC(=O)[C@H](CC(C)C)NC1=O) [[(Glu^6, Lys^10)lac.]PTH(1-14), cyclized via a 6-10 lactam bridge]",cAMP EC50,[3],27 µM
same,cAMP Emax (%),[3],52%
"AVAEIKLMHE[hArg]AKW-NH2 (N-terminus assumed; SMILES CC[C@H](C)[C@H](NC(=O)[C@H](CCC(=O)O)NC(=O)[C@H](C)NC(=O)[C@@H](NC(=O)[C@H](C)N)C(C)C)C(=O)N[C@@H](CCCCN)C(=O)N[C@@H](CC(C)C)C(=O)N[C@@H](CCSC)C(=O)N[C@@H](Cc1c[nH]cn1)C(=O)N[C@@H](CCC(=O)O)C(=O)N[C@@H](CCCCNC(=N)N)C(=O)N[C@@H](C)C(=O)N[C@@H](CCCCN)C(=O)N[C@@H](Cc1c[nH]c2ccccc12)C(N)=O) [[Lys^6, Glu^10]PTH(1-14)]",cAMP EC50,[3],130 µM
same,cAMP Emax (%),[3],37%
SVSEIQLMHNLGKHLNSMERVEWLRKKLQDVHNY-NH2 (Human PTH(1-34) analog with Tyr at 34; also called [Tyr^34]hPTH(1-34)NH2; PTH(1-34) scaffold peptide) [PTH(1-34) ([Tyr^34]hPTH(1-34)amide)],IC50,[4],6 µM
same,cAMP EC50,[5],1.9 µM
same,cAMP Emax (%),[5],100%
same,cAMP Emax (%),[6],44%
same,cAMP EC50,[7],0.27 µM
same,cAMP Emax (%),[7],100%
"SVSEIALMHALGKHLNSMERVEWLRKKLQDVHNY-NH2 (Double Ala analog of [Tyr^34]hPTH(1-34)amide) [[Ala^6,10]PTH(1-34)]",IC50,[4],3.9 µM
same,cAMP EC50,[5],2.2 µM
same,cAMP Emax (%),[5],107%
same,cAMP EC50,[6],19 µM
same,cAMP Emax (%),[6],44%
same,cAMP EC50,[7],0.3 µM
same,cAMP Emax (%),[7],121%
SVSEIALMHNLGKHLNSMERVEWLRKKLQDVHNY-NH2 (Gln6->Ala analog of [Tyr^34]hPTH(1-34)amide) [[Ala^6]PTH(1-34)],IC50,[4],4.5 µM
same,cAMP EC50,[5],4.9 µM
same,cAMP Emax (%),[5],105%
same,cAMP EC50,[6],> 100 µM
same,cAMP Emax (%),[6],4.5%
same,cAMP EC50,[7],0.17 µM
same,cAMP Emax (%),[7],104%
